Values of other authors as cited in patent publication US20030232389A1, “Urokinase peptide structure mimetics” (priority 2000, published 2003).
Positions of bridges follow the written chain, without caps; N, C: chain ends. Non-standard residues stand in square brackets, D forms with d. No end group written: not given here.

Molecular target: uPAR (uPA receptor) (Homo sapiens, UniProt Q03405)
Details: cyclic disulfide peptide mimicking loop B of the uPA growth factor domain; value from German patent application 199 33 701.2

uPAR (uPA receptor), sequence (Q03405 23-305): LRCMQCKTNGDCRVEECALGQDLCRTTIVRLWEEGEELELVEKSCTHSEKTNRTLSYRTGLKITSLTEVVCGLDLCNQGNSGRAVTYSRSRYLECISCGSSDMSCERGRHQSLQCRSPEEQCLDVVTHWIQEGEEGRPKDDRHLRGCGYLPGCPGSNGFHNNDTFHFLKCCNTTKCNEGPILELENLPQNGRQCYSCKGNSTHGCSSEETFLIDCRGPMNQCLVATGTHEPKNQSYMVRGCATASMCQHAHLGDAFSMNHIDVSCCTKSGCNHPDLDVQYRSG

## cyclo[1,9] D-Cys-Asn-Lys-Tyr-Phe-Ser-Asn-Ile-Cys-Trp ([dC]NKYFSNICW; disulfide 1-9) [cyclo[21,29][D-Cys21Cys29]-uPA21-30]
  IC50: 78 nM
